# Test results as given in publication doi:10.1101/2024.09.03.610921 (bioRxiv, 2024).
# B1: RAGE^124-341-His-FLAG (extracellular region of RAGE lacking the V domain) (domain or fragment)
# chain: PEIVDSASELTAGVPNKVGTCVSEGSYPAGTLSWHLDGKPLVPNEKGVSVKEQTRRHPETGLFTLQSELMVTPARGGDPRPTFSCSFSPGLPRHRALRTAPIQPRVWEPVPLEEVQLVVEPEGGAVAPGGTVTLTCEVPAQPSPQIHWMKDGVPLPLPPSPVLILPEIGPQDQGTYSCVATHSSHGPQESRAVSISIIEPGEEGPTAGSVGGSGLGTL
# Target: recombinant human histone H3.1 (human, UniProt P68431 1-136)
# Assay: pull-down
binder,measurement,value
B1,binding result,binds
